Values belong to the binder of their own block, whether it stands above or below them.
Assays:
Assay in all cases: holdup assay
Set-up in all cases: key: below the threshold = too weak to quantify, mostly under pKd 3.1 to 4
[1] = target: T1, LNX2_2, Q8N448
T1 sequence (Q8N448 334-432, limits assumed, looked up): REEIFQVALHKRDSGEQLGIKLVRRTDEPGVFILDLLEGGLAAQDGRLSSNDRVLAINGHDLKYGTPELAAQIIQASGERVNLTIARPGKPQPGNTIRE

[2] = target: DLG5_1, Q8TDM6
[3] = target: FRMPD2_1, Q68DX3
[4] = target: T2, SNTG1, Q9NSN8
T2 sequence (Q9NSN8 52-150, limits assumed, looked up): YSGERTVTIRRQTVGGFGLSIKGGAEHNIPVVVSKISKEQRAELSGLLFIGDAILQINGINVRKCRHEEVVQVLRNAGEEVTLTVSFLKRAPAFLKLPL

[5] = target: T3, PDZRN3_1, Q9UPQ7
T3 sequence (Q9UPQ7 244-349, limits assumed, looked up): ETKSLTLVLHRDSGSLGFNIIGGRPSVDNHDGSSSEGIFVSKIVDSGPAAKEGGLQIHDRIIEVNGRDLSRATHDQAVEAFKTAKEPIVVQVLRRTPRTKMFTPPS

[6] = target: T4, SNTG2, Q9NY99
T4 sequence (Q9NY99 68-166, limits assumed, looked up): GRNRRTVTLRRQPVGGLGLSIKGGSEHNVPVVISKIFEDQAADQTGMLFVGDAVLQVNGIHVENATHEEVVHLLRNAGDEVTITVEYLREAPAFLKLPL

[7] = target: SNX27, Q96L92
[8] = target: PARD3_3, Q8TEW0
[9] = target: SCRIB_2, Q14160
[10] = target: T5, TIAM2, Q8IVF5
T5 sequence (Q8IVF5 885-986, limits assumed, looked up): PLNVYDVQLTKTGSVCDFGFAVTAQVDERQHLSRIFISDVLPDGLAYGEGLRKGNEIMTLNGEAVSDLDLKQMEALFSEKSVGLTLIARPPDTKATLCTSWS

[11] = target: IL16_1, Q14005
[12] = target: TJP1_2, Q07157
[13] = target: FRMPD2_2, Q68DX3
[14] = target: MAGI2_5, Q86UL8
[15] = target: MAGI3_2, Q5TCQ9
[16] = target: T6, SYNJ2BP, P57105
T6 sequence (P57105 8-110, limits assumed, looked up): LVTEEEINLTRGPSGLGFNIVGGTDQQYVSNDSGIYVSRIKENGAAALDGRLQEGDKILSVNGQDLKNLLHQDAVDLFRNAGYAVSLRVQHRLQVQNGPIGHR

[17] = target: T7, MPDZ_12, O75970
T7 sequence (O75970 1857-1958, limits assumed, looked up): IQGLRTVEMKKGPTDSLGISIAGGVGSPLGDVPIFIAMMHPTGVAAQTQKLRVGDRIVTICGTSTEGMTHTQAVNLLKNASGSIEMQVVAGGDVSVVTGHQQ

[18] = target: T8, TX1BP3, O14907
T8 sequence (O14907 10-122, limits assumed, looked up): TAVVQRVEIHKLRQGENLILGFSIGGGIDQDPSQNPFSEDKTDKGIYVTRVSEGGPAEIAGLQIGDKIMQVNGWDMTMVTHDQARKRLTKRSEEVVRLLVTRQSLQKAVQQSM

[19] = target: NOS1, P29475
[20] = target: LDB3, O75112
[21] = target: GRID2IP_2, A4D2P6
[22] = target: MAGI2_2, Q86UL8
[23] = target: DLG4_3, P78352
[24] = target: DLG4_2, P78352
[25] = target: MAGI2_3, Q86UL8
[26] = target: GRID2IP_1, A4D2P6
[27] = target: T9, NHERF3_4, Q5T2W1
T9 sequence (Q5T2W1 373-468, limits assumed, looked up): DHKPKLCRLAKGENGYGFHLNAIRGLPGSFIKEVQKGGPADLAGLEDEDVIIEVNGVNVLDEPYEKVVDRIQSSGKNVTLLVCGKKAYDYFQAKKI

[28] = target: T10, GRIP1_5, Q9Y3R0
T10 sequence (Q9Y3R0 568-668, limits assumed, looked up): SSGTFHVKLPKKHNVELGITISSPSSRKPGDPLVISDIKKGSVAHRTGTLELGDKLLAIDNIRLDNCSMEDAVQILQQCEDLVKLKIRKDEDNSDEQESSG

[29] = plain residues with an end cap or a label only (N-terminal biotin on a linker: ttds)
[30] = plain residues with an end cap or a label only (N-terminal biotin on a linker: ado-ado)

Chain of GRID2IP_1, A4D2P6 (A4D2P6 1-87): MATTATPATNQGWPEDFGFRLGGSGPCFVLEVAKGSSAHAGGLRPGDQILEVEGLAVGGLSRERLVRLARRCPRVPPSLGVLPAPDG
Chain of MAGI3_2, Q5TCQ9 (Q5TCQ9 398-503): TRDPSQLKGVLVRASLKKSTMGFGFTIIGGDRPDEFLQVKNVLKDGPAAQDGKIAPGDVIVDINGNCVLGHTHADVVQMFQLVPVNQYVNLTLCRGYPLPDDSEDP
Chain of IL16_1, Q14005 (Q14005 210-306): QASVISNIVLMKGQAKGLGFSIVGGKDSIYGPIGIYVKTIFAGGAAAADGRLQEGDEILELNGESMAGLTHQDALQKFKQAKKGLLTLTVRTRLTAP
Chain of DLG5_1, Q8TDM6 (Q8TDM6 617-713): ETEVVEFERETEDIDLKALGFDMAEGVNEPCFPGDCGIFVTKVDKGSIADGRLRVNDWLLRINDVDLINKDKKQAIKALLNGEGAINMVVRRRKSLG
Chain of DLG4_3, P78352 (P78352 306-403): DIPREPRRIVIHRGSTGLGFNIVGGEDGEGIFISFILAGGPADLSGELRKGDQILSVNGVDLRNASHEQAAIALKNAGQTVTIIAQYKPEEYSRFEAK
Chain of GRID2IP_2, A4D2P6 (A4D2P6 272-370): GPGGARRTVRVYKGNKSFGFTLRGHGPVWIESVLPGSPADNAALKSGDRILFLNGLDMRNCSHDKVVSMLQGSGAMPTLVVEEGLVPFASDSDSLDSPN
Chain of SCRIB_2, Q14160 (Q14160 857-960): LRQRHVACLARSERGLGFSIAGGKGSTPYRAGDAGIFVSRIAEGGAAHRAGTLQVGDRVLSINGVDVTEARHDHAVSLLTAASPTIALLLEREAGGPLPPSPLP
Chain of PARD3_3, Q8TEW0 (Q8TEW0 582-685): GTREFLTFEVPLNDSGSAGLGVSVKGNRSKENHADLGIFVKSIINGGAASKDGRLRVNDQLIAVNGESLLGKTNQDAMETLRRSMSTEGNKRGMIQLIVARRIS
Chain of MAGI2_3, Q86UL8 (Q86UL8 600-682): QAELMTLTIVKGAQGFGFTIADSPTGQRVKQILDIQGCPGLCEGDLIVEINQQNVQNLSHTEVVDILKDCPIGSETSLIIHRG
Chain of TJP1_2, Q07157 (Q07157 181-274): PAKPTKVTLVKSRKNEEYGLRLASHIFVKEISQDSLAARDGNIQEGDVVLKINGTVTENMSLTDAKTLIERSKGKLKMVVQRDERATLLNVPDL
Chain of FRMPD2_2, Q68DX3 (Q68DX3 944-1038): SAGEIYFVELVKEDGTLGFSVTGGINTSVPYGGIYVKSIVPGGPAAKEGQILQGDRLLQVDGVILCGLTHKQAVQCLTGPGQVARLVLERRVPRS
Chain of FRMPD2_1, Q68DX3 (Q68DX3 770-861): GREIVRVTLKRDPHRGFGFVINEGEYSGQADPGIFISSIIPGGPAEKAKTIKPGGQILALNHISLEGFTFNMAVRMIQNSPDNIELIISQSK
Chain of MAGI2_2, Q86UL8 (Q86UL8 410-522): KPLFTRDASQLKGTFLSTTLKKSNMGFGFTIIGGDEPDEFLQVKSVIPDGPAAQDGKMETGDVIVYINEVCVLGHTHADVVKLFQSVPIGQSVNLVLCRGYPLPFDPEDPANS
Chain of DLG4_2, P78352 (P78352 155-259): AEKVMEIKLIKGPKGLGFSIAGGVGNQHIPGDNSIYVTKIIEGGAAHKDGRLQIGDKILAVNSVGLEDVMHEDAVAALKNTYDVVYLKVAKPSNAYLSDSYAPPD
Chain of LDB3, O75112 (O75112 1-94): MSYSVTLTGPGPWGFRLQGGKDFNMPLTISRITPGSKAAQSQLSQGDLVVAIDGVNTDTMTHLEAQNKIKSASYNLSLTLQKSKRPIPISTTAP
Chain of MAGI2_5, Q86UL8 (Q86UL8 915-1017): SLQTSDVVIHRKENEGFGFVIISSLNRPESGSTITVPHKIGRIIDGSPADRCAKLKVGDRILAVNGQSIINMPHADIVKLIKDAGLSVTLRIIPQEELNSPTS
Chain of NOS1, P29475 (P29475 9-101): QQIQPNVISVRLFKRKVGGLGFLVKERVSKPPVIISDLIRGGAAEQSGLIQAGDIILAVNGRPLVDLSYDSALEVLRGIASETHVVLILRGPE

pKd [1, 29]: below the threshold | pKd [2, 29]: below the threshold | pKd [3, 29]: below the threshold | pKd [4, 29]: 4.79 | pKd [5, 29]: below the threshold | pKd [6, 29]: 4.37 | pKd [7, 29]: 4.8 | pKd [8, 29]: below the threshold | pKd [9, 29]: 4.59 | pKd [10, 29]: below the threshold | pKd [11, 29]: 4.66 | pKd [12, 29]: below the threshold | pKd [13, 29]: below the threshold | pKd [14, 29]: 3.7 | pKd [15, 29]: 4.55 | pKd [16, 29]: 5.08 | pKd [17, 29]: below the threshold | pKd [18, 29]: 5.9 | pKd [19, 29]: below the threshold | pKd [20, 29]: below the threshold | pKd [21, 29]: below the threshold | pKd [22, 29]: below the threshold | pKd [23, 29]: below the threshold | pKd [24, 29]: 4.6 | pKd [25, 29]: below the threshold | pKd [26, 29]: below the threshold | pKd [27, 29]: below the threshold | pKd [28, 29]: below the threshold
Binder: PKRPFVESNV [TANC2, Q9HCD6]

pKd [1, 30]: below the threshold | pKd [2, 30]: below the threshold | pKd [3, 30]: below the threshold | pKd [4, 30]: 3.62 | pKd [5, 30]: 4.72 | pKd [6, 30]: 4.31 | pKd [7, 30]: 5.59 | pKd [8, 30]: 4.35 | pKd [9, 30]: below the threshold | pKd [10, 30]: below the threshold | pKd [11, 30]: 4.48 | pKd [12, 30]: below the threshold | pKd [13, 30]: below the threshold | pKd [14, 30]: 4.08 | pKd [15, 30]: below the threshold | pKd [16, 30]: 3.95 | pKd [17, 30]: below the threshold | pKd [18, 30]: 3.73 | pKd [19, 30]: below the threshold | pKd [20, 30]: below the threshold | pKd [21, 30]: 3.86 | pKd [22, 30]: below the threshold | pKd [23, 30]: below the threshold | pKd [24, 30]: 3.5 | pKd [25, 30]: 3.48 | pKd [26, 30]: below the threshold | pKd [27, 30]: below the threshold | pKd [28, 30]: below the threshold
Binder: GFGEERESIL [KIDINS220, Q9ULH0]

pKd [1, 29]: below the threshold | pKd [2, 29]: below the threshold | pKd [3, 29]: below the threshold | pKd [4, 29]: 5.31 | pKd [5, 29]: 4.55 | pKd [6, 29]: 5.22 | pKd [7, 29]: 5.73 | pKd [8, 29]: 3.86 | pKd [9, 29]: 4.45 | pKd [10, 29]: below the threshold | pKd [11, 29]: 3.49 | pKd [12, 29]: below the threshold | pKd [13, 29]: 3.8 | pKd [14, 29]: 3.5 | pKd [15, 29]: 3.57 | pKd [16, 29]: 4.95 | pKd [17, 29]: below the threshold | pKd [18, 29]: 3.96 | pKd [19, 29]: 3.55 | pKd [20, 29]: below the threshold | pKd [21, 29]: 4.29 | pKd [22, 29]: below the threshold | pKd [23, 29]: 3.61 | pKd [24, 29]: 4.18 | pKd [25, 29]: below the threshold | pKd [26, 29]: below the threshold | pKd [27, 29]: below the threshold | pKd [28, 29]: below the threshold
Binder: LDSQIQETSI [MAP4, P27816]

pKd [1, 30]: below the threshold | pKd [2, 30]: 3.49 | pKd [3, 30]: below the threshold | pKd [4, 30]: 3.64 | pKd [5, 30]: 3.65 | pKd [6, 30]: below the threshold | pKd [7, 30]: 4 | pKd [8, 30]: below the threshold | pKd [9, 30]: 3.54 | pKd [10, 30]: below the threshold | pKd [11, 30]: below the threshold | pKd [12, 30]: below the threshold | pKd [13, 30]: below the threshold | pKd [14, 30]: below the threshold | pKd [15, 30]: below the threshold | pKd [16, 30]: below the threshold | pKd [17, 30]: below the threshold | pKd [18, 30]: below the threshold | pKd [19, 30]: 3.78 | pKd [20, 30]: 3.54 | pKd [21, 30]: 3.48 | pKd [22, 30]: below the threshold | pKd [23, 30]: 4 | pKd [24, 30]: 3.62 | pKd [25, 30]: below the threshold | pKd [26, 30]: below the threshold | pKd [27, 30]: below the threshold | pKd [28, 30]: 3.52
Binder: EDLTKNHDEL [RCN1, Q15293]

pKd [1, 29]: below the threshold | pKd [2, 29]: below the threshold | pKd [3, 29]: below the threshold | pKd [4, 29]: 3.73 | pKd [5, 29]: 3.53 | pKd [6, 29]: below the threshold | pKd [7, 29]: 5.11 | pKd [8, 29]: below the threshold | pKd [9, 29]: 3.51 | pKd [10, 29]: below the threshold | pKd [11, 29]: 3.68 | pKd [12, 29]: below the threshold | pKd [13, 29]: below the threshold | pKd [14, 29]: 3.7 | pKd [15, 29]: below the threshold | pKd [16, 29]: 4.65 | pKd [17, 29]: below the threshold | pKd [18, 29]: 6.25 | pKd [19, 29]: below the threshold | pKd [20, 29]: below the threshold | pKd [21, 29]: 3.74 | pKd [22, 29]: below the threshold | pKd [23, 29]: 3.62 | pKd [24, 29]: below the threshold | pKd [25, 29]: below the threshold | pKd [26, 29]: below the threshold | pKd [27, 29]: below the threshold | pKd [28, 29]: below the threshold
Binder: VNKVWDQSSV [CIT, O14578]

From article PMC9482650, “Quantitative fragmentomics allow affinity mapping of interactomes” (Nature Communications, 2022)
